Source: IntAct's records for PubMed 15930137

B1: E3 ubiquitin-protein ligase NHLRC1 (Homo sapiens), Q6VVB1 (parent)
chain: MAAEASESGPALHELMREAEISLLECKVCFEKFGHRQQRRPRNLSCGHVVCLACVAALAHPRTLALECPFCRRACRGCDTSDCLPVLHLIELLGSALRQSPAAHRAAPSAPGALTCHHTFGGWGTLVNPTGLALCPKTGRVVVVHDGRRRVKIFDSGGGCAHQFGEKGDAAQDIRYPVDVTITNDCHVVVTDAGDRSIKVFDFFGQIKLVIGGQFSLPWGVETTPQNGIVVTDAEAGSLHLLDVDFAEGVLRRTERLQAHLCNPRGVAVSWLTGAIAVLEHPLALGTGVCSTRVKVFSSSMQLVGQVDTFGLSLYFPSKITASAVTFDHQGNVIVADTSGPAILCLGKPEEFPVPKPMVTHGLSHPVALTFTKENSLLVLDTASHSIKVYKVDWG
partner: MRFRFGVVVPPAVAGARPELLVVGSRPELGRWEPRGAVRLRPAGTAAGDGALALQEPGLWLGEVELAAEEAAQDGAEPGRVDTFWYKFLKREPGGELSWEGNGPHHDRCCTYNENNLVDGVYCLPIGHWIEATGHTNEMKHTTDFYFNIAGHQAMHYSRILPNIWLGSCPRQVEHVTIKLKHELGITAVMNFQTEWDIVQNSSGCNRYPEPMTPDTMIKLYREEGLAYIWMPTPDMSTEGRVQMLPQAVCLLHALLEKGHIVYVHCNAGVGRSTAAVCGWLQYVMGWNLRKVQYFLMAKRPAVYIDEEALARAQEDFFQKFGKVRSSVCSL

Variants of: B1
Conditions: with epm2a_human EPM2A
In the case of MAAEASESGPALHELMREAEISLLECKVCFEKFGHRQQRRPRNLSCGHVVCLACVAALAHPRTLALECPFCRRACRGCDTSDCLPVLHLIELLGSALRQSPAAHRAAPSAPGALTCHHTFGGWGTLVNPTGLALCPKTGRVVVVHDGRRRVKIFDSGGGCAHQFGEKGDAAQDIRYPVDVTITNDCHVVVTDAGDRSIKVFDFFGQIKLVIGGQFSLPWGVETTPQNGIVVTDAEAGSLHLLDVDFAEGVLRRTERLQAHLCNPRGVAVSWLTGAIAVLEHPLALGTGVCSTRVKVFSSSMPLVGQVDTFGLSLYFPSKITASAVTFDHQGNVIVADTSGPAILCLGKPEEFPVPKPMVTHGLSHPVALTFTKENSLLVLDTASHSIKVYKVDWG [Q302P], the “effect of a mutation on the interaction” value is reported as “disrupting interaction”. MAAEASESGPALHELMREAEISLLECKVCFEKFGHRQQRRPRNLSCGHVVCLACVAALAHPRTLALECPFCRRACRGCDTSDCLPVLHLIELLGSALRQSPAAHRAAPSAPGALTCHHTFGGWGTLVNPTGLALCPKTGRVVVVHDGRRRVKIFDSGGGCAHQFGEKGDAAQDIRYPVDVTITNDCHVVVTDAGDRSIKVFDFFGQIKLVIGGQFSLPWGVETTPQNGIVVTDAEAGSLHLLDVDFAEGVLRRTERLQAHLCNPRGVAVSWLTGAIAVLKHPLALGTGVCSTRVKVFSSSMQLVGQVDTFGLSLYFPSKITASAVTFDHQGNVIVADTSGPAILCLGKPEEFPVPKPMVTHGLSHPVALTFTKENSLLVLDTASHSIKVYKVDWG [E280K] was tested, and the “effect of a mutation on the interaction” value was “disrupting interaction”.

Variants of: B1
Conditions: with epm2a_human EPM2A
Remark: another data set of the same source
With MAAEASESGPALHELMREAEISLLECKVCFEKFGHRQQRRPRNLSCGHVVCLACVAALAHPRTLALECPFCRRACRGCDTSDCLPVLHLIELLGSALRQSPAAHRAAPSAPGALTCHHTFGGWGTLVNPTGLALCPKTGRVVVVHDGRRRVKIFDSGGGCAHQFGEKGDAAQDIRYPVDVTITNDCHVVVTDAGDRSIKVFDFFGQIKLVIGGQFSLPWGVETTPQNGIVVTDAEAGSLHLLDVDFAEGVLRRTERLQAHLCNPRGVAVSWLTGAIAVLEHPLALGTGVCSTRVKVFSSSMPLVGQVDTFGLSLYFPSKITASAVTFDHQGNVIVADTSGPAILCLGKPEEFPVPKPMVTHGLSHPVALTFTKENSLLVLDTASHSIKVYKVDWG [Q302P] the “effect of a mutation on the interaction” value was “decreasing interaction”. With MAAEASESGPALHELMREAEISLLECKVCFEKFGHRQQRRPRNLSCGHVVCLACVAALAHPRTLALECPFCRRACRGCDTSDCLPVLHLIELLGSALRQSPAAHRAAPSAPGALTCHHTFGGWGTLVNPTGLALCPKTGRVVVVHDGRRRVKIFDSGGGCAHQFGEKGDAAQDIRYPVDVTITNDCHVVVTDAGDRSIKVFDFFGQIKLVIGGQFSLPWGVETTPQNGIVVTDAEAGSLHLLDVDFAEGVLRRTERLQAHLCNPRGVAVSWLTGAIAVLKHPLALGTGVCSTRVKVFSSSMQLVGQVDTFGLSLYFPSKITASAVTFDHQGNVIVADTSGPAILCLGKPEEFPVPKPMVTHGLSHPVALTFTKENSLLVLDTASHSIKVYKVDWG [E280K] the “effect of a mutation on the interaction” value was “decreasing interaction”. MAAEASESGPALHELMREAEISLLECKVCFEKSGHRQQRRPRNLSCGHVVCLACVAALAHPRTLALECPFCRRACRGCDTSDCLPVLHLIELLGSALRQSPAAHRAAPSAPGALTCHHTFGGWGTLVNPTGLALCPKTGRVVVVHDGRRRVKIFDSGGGCAHQFGEKGDAAQDIRYPVDVTITNDCHVVVTDAGDRSIKVFDFFGQIKLVIGGQFSLPWGVETTPQNGIVVTDAEAGSLHLLDVDFAEGVLRRTERLQAHLCNPRGVAVSWLTGAIAVLEHPLALGTGVCSTRVKVFSSSMQLVGQVDTFGLSLYFPSKITASAVTFDHQGNVIVADTSGPAILCLGKPEEFPVPKPMVTHGLSHPVALTFTKENSLLVLDTASHSIKVYKVDWG [F33S] was tested, and the “effect of a mutation on the interaction” value was “decreasing interaction”. MAAEASESGPALHELMREAEISLLESKVCFEKFGHRQQRRPRNLSCGHVVCLACVAALAHPRTLALECPFCRRACRGCDTSDCLPVLHLIELLGSALRQSPAAHRAAPSAPGALTCHHTFGGWGTLVNPTGLALCPKTGRVVVVHDGRRRVKIFDSGGGCAHQFGEKGDAAQDIRYPVDVTITNDCHVVVTDAGDRSIKVFDFFGQIKLVIGGQFSLPWGVETTPQNGIVVTDAEAGSLHLLDVDFAEGVLRRTERLQAHLCNPRGVAVSWLTGAIAVLEHPLALGTGVCSTRVKVFSSSMQLVGQVDTFGLSLYFPSKITASAVTFDHQGNVIVADTSGPAILCLGKPEEFPVPKPMVTHGLSHPVALTFTKENSLLVLDTASHSIKVYKVDWG [C26S] was tested, and the “effect of a mutation on the interaction” value was “decreasing interaction”.
